# Test results: publication PMC5504490 (Journal of Proteome Research, 2017)
# B1: δ subunit (RpoE) of RNAP (natural protein)
# chain: MGIKQYSQEELKEMALVEIAHELFEEHKKPVPFQELLNEIASLLGVKKEELGDRIAQFYTDLNIDGRFLALSDQTWGLRSWYPYDQLDEETQPTVKAKKKKAKKAVEEDLDLDEFEEIDEDDLDLDEVEEELDLEADDFDEEDLDEDDDDLEIEEDIIDEDDEDYDDEEEEIK
# Biological target: RNAP β′ subunit with 6his (rpoC-6his), in purified RNAP (B. subtilis (strain BS200), UniProt P37871 1-1199)
# Assay: cross-linking
# RNAP β′ subunit with 6his (rpoC-6his), in purified RNAP, sequence (P37871 whole entry): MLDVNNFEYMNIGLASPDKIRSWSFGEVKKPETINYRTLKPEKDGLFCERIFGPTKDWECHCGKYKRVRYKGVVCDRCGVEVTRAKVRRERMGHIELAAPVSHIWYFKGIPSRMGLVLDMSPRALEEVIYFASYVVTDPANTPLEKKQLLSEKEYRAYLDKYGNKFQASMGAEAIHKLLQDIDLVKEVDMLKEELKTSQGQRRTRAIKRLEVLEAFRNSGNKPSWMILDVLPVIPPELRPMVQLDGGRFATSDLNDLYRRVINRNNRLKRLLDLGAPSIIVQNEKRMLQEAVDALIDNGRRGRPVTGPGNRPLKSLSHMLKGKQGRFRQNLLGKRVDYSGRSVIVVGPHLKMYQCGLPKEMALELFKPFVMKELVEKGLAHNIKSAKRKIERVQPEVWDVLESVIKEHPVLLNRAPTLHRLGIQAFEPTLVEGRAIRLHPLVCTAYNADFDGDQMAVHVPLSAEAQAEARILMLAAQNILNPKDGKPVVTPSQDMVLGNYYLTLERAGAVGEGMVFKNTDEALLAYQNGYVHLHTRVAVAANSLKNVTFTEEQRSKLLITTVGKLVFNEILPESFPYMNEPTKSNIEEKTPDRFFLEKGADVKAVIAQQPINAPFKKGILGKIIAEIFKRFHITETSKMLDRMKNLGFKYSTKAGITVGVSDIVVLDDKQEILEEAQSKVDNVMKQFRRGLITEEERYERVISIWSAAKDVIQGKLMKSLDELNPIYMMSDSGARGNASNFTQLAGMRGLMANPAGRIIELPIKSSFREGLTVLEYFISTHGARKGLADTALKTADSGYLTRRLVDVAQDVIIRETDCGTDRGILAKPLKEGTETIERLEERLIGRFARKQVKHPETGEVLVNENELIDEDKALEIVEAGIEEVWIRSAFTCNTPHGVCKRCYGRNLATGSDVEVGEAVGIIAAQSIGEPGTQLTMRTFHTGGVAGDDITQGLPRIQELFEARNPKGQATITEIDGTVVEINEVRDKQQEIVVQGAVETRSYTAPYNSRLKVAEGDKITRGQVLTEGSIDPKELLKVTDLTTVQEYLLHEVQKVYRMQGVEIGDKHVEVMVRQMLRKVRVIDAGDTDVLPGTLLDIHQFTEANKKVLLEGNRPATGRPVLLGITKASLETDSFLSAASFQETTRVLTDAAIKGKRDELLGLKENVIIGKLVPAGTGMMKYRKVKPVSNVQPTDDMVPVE
binder,measurement,value
B1,binding result,binds
